We go through four molecules from article PMC3637433 (The FEBS journal, 2013).

Where two headings read alike, the source gives them in different places. Square brackets hold non-standard residues; d marks the D form. Ends that are not written are not given here. sY = N[C@@H](Cc1ccc(OS(=O)(=O)O)cc1)C(=O)O

For test [1], the target named is RANTES (E66S mutant of human RANTES) (human). Description: 1H-15N-HSQC, intensities of monomer and dimer cross-peaks.
For test [2] the target is unchanged. The description is as above. The source holds these as a separate data set.
Test [3] shares this target. The description is as above. The source holds these as a separate data set.
The target is the same in test [4]. The test is described as above. The source holds these as a separate data set.
For test [5] the target is unchanged. The test is described as above. This is another data set of the same source.
The target of test [6] is CCR5 N-terminal peptide (Nt-CCR5) N-terminus (Homo sapiens) (UniProt P51681). Conditions: cited from earlier work.
Sequence of CCR5 N-terminal peptide (Nt-CCR5) N-terminus (Homo sapiens) (P51681 1-27): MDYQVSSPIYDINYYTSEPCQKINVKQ
The target in another test is T1, RANTES (Homo sapiens, UniProt P13501, E89S).
T1 sequence (P13501 24-91 E89S): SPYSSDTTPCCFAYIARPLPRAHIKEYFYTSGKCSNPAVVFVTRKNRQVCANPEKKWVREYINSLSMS
The experiment in a line: 1H-15N-HSQC NMR titration of U-15N-RANTES. Conditions: 293 K, pH 4.8; peptide up to 2.9 mM, 64 molar excess relative to RANTES; KD could not be extracted. It counts as binding.

Test [7] has as its target RANTES (E66S mutant of human RANTES) (human). The experiment in a line: NMR titration.
Test [8] shares this target. Description: NMR titration. This is another data set of the same source.
Test [9] shares this target. The experiment in a line: NMR titration. The source holds these as a separate data set.

As to “RANTES (E66S mutant of human RANTES) (ligand)”, the ratio of monomer/dimer peak intensities, IM/ID in test [1] was less than 0.1; in test [2] it was 0.45; in [3], 0.2; in test [4] it was 1.57; in [5], 0.13. For the same molecule, the stoichiometry N (usually the number of molecules, sites or subunits per partner or assembly) in test [2] was 2.
RANTES (from UniProt P13501): the Kd (as a rule, the concentration at which binding is half-saturated) in [6] was 1000 nM.
TRSQKEGLHYTSSSHFPYSQYQ [ECL2]: the “Saturation of RANTES chemical shift changes on titration” value at RANTES was “saturation was not achieved”.
For MDYQVSSPI[sY]DIN[sY]YTSEPAQKINVKQ [Nt-CCR5 peptide (CCR5 residues 1-27), sulfated at Y10 and Y14], the Kd in test [7] turned out to be 84 µM; in [8], 16 µM; in test [9], 100 µM.
